Test: soluble on expression in E. coli; label from the status in PepcDB or PDB records

Soluble on expression in E. coli, not soluble:
MGSDKIHHHHHHMIHRQTNQLNTDNLEKKQRQYKYAFNLAEIDSESFPMHIFRKYAKDVFEDHQLSLLQRGERQGEYILRQQISHYLFNSRGVTCHPNQIIVGSSTSQLLDMITNLLKKEEFIIEQPSYPPIKHTLDKKGISYIQVPVEQNGIQIDPILNTNNNILYITPSHQFPTGYVTNLKKRTQLINWSHQAKQRYIIEDDYDSEFRYFGKPIPALQSLDTKGKVIYISTFSKSLYPSCRIAYIVLPQNLMHKYNNQKYKEGNTVPVHVQHMIAQFMISGKFERHLNKMRKIYRDKLDYILKRLKPYNTQIKIEGALTGMHFTITVNNGLSMKQCLKNAKKNNLKLKPYHYENYSKVYPKFILGFGGIKKEELEDHVNALIHSLVI, MGSDKIHHHHHHMIIELNKSNSENLTKTELEIIKFINENESILPELSIVEIAHETYSSPATVSRAIRKCGLNGFNELRYRLTVKDENDDIQNMGDIINKSFIEAQRVIEQISLTTLINIIKTINKSSKIYILARGLTEYVAKEFSLKLQLLDFNVVFINDPNIMKIKSKSIKKDELIIIFSLNGNTIELVESAQNANLVGAKVITCCCSESAKLIKYSDLYIVGYKHEHISISEYEVSSRLPLYIISRIIIDYMVRYNNSEN, MGSDKIHHHHHHMIKIAIVGFGTVGQGVAELLIRKREEIEKAIGEFKVTAVADSKSSISGDFSLVEALRMKRETGMLRDDAKAIEVVRSADYDVLIEASVTRVDGGEGVNYIREALKRGKHVVTSNKGPLVAEFHGLMSLAERNGVRLMYEATVGGAMPVVKLAKRYLALCEIESVKGIFNGTCNYILSRMEEERLPYEHILKEAQELGYAEADPSYDVEGIDAALKLVIIANTIGVKASYEDVEVTGITQITPEAFQVAAEKGYTIRLIAEVSREKLKVSPRLVPFHHPLAIKGTMNAAMFKTDTAGSIFVAGRGAGKEETASAILSDLYEIYAGPR, MGSDKIHHHHHHMIKIKKSEDCCGCSACLSICNHNAIVFKEDVEGFKYPMIEEGKCINCGLCEMACPILYRKVKDIRPTPKAYFAARHKNIVTLRNSSSGGAFTAIAGSVIELGGVVCGVEYDNDGVVRHSFSETMEGIRSFMGSKYVQSEIQGVYNQIKTYLKSDRWVLFTGSPCQVEGLKLFLRKPYENLLTVDLVCHAVPSPLIYKQYINMCSTKLGQKVMSINMRYKQTYGWSHRFSYCFYFENGQKAVDPVWVVNWGKIFFSQMINRPSCHSCKYSNLDRPGDFTIADFWDDKKNRPDLYSCEGTSLLMVNTNMGLDLINKLYDSIDLWKITKDEAMQPCLIRPTCSNQRRQEFWEFYLLRGFDAAYKKYFGDSKYVITKKIVKQIIKRVLRKLQ, MGSDKIHHHHHHMIKNFVLDTNVLLYDPQAIFKFEENNIIIPITVIEEIDRFKKDMNETGRNARQLSRYLDEMRATGSLANGIALETGGTLRVEMYEEKFMKVLPPELREERGDNRILAVALRVKEQDEATPVIFVTKDTNLRIKSDALGLKAEDYESDKVDIEELYPGFTELEVSAEMVDRFHGQGWVDLTGYDLHPNQFVTLRDAANPSHTALGKYRADQKRITPIAKNGKDGVWSIHPRNREQAFAFDALLDDSIKLVTLVGKAGTGKTLLAIAAGLHKTAEENVYNRLLVSRPVFPMGRDLGFLPGDIEEKLTPWMQPIFDNVELLLSGHEAEKRHSKGYKELMAMGIMDIEPLTYIRGRSIPLQFMIVDEAQNLTPHEIKTIITRAGEGTKIVLTGDPYQIDNPYVDASSNGLTYVVERFKGVPIAGHVTMTKGERSELAELAANLL, MGSDKIHHHHHHMIKRLKIKNFKSYRDSEFEFEKVSIVVGPNGSGKTNLVDAFSFLKQLIRPLSYPPYPFIRWGDYKNVVFMQDENLDISFEIDGEYKGKDYHYEISLNKLQIKKEIINFDSYSMERRGNVIRYENKEMTIPDNLSVFNLFFAQPFIIAYNLNFTLPPELLNFMTNFLNDVGVFRIVPQIAVSPVHFTFPEALDENGRGLVKVISNNLSRINETKQVYDFLVENNISLRPVFTEDGNIRLHFIEKSENNKELILLPASVPDGFIKMLTIIIAVYLLKMSTIIIDEIENSLHLKYIERLVDIMRYSDSQFIATTHSPLIIDFMDPFRNNNS, MGSDKIHHHHHHMIKSFWLENFGPISLLKADNLGKINLIIAENSKGKTFILKALYSVLKSHEEAHKGKNIRDFSEELRDKLYWTFQVEEIGDLVTRGKENPNERPLKLSMTLEDSSSVLFSFGRTTKKLIKPELYELSPRINANSIFLPPKEVLSLFDVIKKSEEEKRFGFDATYIDLVKALDIKPTKGRNYPEAAEARKDLEALFGGYVSYNDKKKAWVYEKDRQTFSINSTAEGVKKIGILDTLLGNRFLSPGSILFIDEPEANLHPKAINQFLEILFSLSKSKLGIQIFMSTHSYFVIKKLCLLARKHSESIPVFMPGKEKEQTTWVQENLQNSMPDNEIIGESIRLFREEIGVLSPETAWIG, MGSDKIHHHHHHMIKSVLVIRNDKIGDFVLTWPALYELKMALPNASIEVFVDPVLKDFAMACPYIDHVIVDDGDDQAITKAFAERHYDAVIVSRSQIRTYRLLRKLDIPYKLAPKLNWYQYLYQHRTSIEVPKGLGGWRKSCMMVERFLADHRIPVPTLPTRYWDLSHERRKWQDHYGQQGEERLIFAHPGTGGSSGGISPSDFAGLLAQVDKLTAIECKFVLTYSGQEIALAQQIYDLLSAQGIKVVMAEPLASLADFAKSLVAADMFMAGSTGPLHIAGLHNVPTVGFYAGRRSAPKVRWQTLTQSERRLAFTPPVGKKTGRNMALIDFDLAAKEIAAFLDTQYASQSAVS, MGSDKIHHHHHHMIKVNRYEIFLDFSFQTGDYKGYEKIEMESDEETVVLDAVGLKIVKAKVNGKEIEFSQDESRVNVKSGSFSGILEVEFEGKVTERKLVGIYKASYKDGYVISTQFEATHARDFIPCFDHPAMKARFKLTVRVDKGLKVISNMPVVREKEENGKVVYEFDETPKMSTYLLYLGIGNFEEIRDEGKIPTIIVATIPGKVQKGRFSMQISRNSIEFYEKYFEIPYQLPKVHLIAIPEFAYGAMENWGAITFRETALLADDSSSVYQKFRVAEVVAHELAHQWFGNLVTLKWWDDLWLNESFATFMSHKAISQLFPSWNFWDYFVLNQTSRALEKDSVSTTHPIEAHVRDPNEVEQMFDDISYGKGASILRMIEAYVGEENFRRGVVNYLKKFSYSNAQGSDLWNSISEVYGSDISPIMADWITKPGYPMVRVSVSGKRVSLEQERFSLIGNVENLLYKIPLTMEVNGKVVTHLLDKERDTMVFEEDVKSLKVNVNRTGFYRVFYYNNSDLVFNSNLSELDKWGIINDYWAFLLAGKIGFKEYERVISKFFNDKDFLPVNELSNELFTLHAINPDKYQGIAKEFHRIQLKNWRNSKDELGRLTYSNILYRLAAIDDEFSLGLSELFRFYGSLDSDTRQGVAVAYAITYEDNSVDELLERFRKETFDEEKLRYLTAMLFFRKPYLVGNTLSLILSGEIKKQDIPLTLSTAAYNPYAKSAVLNWIKMHINFMREAYKGTGILGRRLAEVIPLIGIGAERETEQFFSNLNMPEAERGIGTGLELLKAYSRLK, MGSDKIHHHHHHMILKRISILNYKNLEQVEIGFSAKLNCFFGQNGMGKTNLLDAVYFLSFCKSSGNPIDSQNIRHEQDFFVIQGFYEAEDGTPEEIYCGMKRRSKKQFKRNKKEYSRFSDHIGFLPLVMVSPADSELIAGGSDERRRFMDVVISQYDKEYLEALIRYNKALAQRNTLLKSEFPVEEELFLVWEEMMAQAGEIVFRKREAFIEEFIPIFQSFYSFISQDKEQVGLSYDSHARDASLLEVLKQSRERDKIMGFSLRGIHKDELNMLLGDFPIKKEGSQGQNKTYLVALKLAQFDFLKRTGQTVPLLLLDDIFDKLDASRVEQIVKLVAGDNFGQIFITDTNREHLDRILQKVGSDYKVFRVDQGVINEMGAEQ, MGSDKIHHHHHHMIMIRQLTPADFDAVITLGEIVHGSGYMDIAELTAIYHKGIKNGINANFVALENEQLIGFRLTYAAGQWPQDQWCTVDKWGVKFEDVCYFKSNTIAESGRGQGLGGKLLAASKAAVIAQGAKAGVSHLWQQSPNNAAVRYFTKAGGKLIKQHPQRWHQRYMGDDYICVLCGEDCHCVACEMLLLF, MGSDKIHHHHHHMINKELTAATFMEVIAEDNRFIYDGIDSNFEPELVFLEFFEALLSFAFICVTDQMTKSYTNVPADDVSGNKHETIYTILNQDAQNKSPSAVMSHESDAAHSDSARSSSSKLELSPDVNKIRKSEPKIKKSVSHERVSKMNFKLTGKGITFFSSESKKYERPKDDREEEFNTWVNNTYVFFVNTLFHAYKREEAIKEKIRADRLRSTAQAQQRKMEDDELEARLNIFILREEEAKRHDYEVDITVLKEPADVSSSHLILDPPKEDVTVSPSSKTITSKKKKK, MGSDKIHHHHHHMINQVYQLVAPRQFEVTYNNVDIYSDYVIVRPLYMSICAADQRYYTGSRDENVLSQKLPMSLIHEGVGEVVFDSKGVFNKGTKVVMVPNTPTEKDDVIAENYLKSSYFRSSGHDGFMQDFVLLNHDRAVPLPDDIDLSIISYTELVTVSLHAIRRFEKKSISNKNTFGIWGDGNLGYITAILLRKLYPESKIYVFGKTDYKLSHFSFVDDVFFINKIPEGLTFDHAFECVGGRGSQSAINQMIDYISPEGSIALLGVSEFPVEVNTRLVLEKGLTLIGSSRSGSKDFQDVVDLYIQYPDIVDKLALLKGQEYEIATINDLTEAFEADLSTSWGKTVLKWIM, MGSDKIHHHHHHMIQLHVYEEIVNFKEEVTPFLEKNEQENNLILGVLQMVHQPIFMGIAKQGEEIAVVFLQTEEKKQIIVATSEISGVAIKELAKELTKIYPDIPGLIGDKKVVQHLAEEIAVLENKKTNVVMEQGVYELKEVKKKPSEDGFFREVSSDELTLIEEWIYQFCEDVNLPTTKEEAKQTAHTLITNHRLFGLEVDGKLVSVAAKTRPTKNNITVNFVYTPKEARKKGYASNCVAALSQRMLDEGYKTTTLYTDLANPTSNKIYQEIGYEQIAESVLIFLEK, MGSDKIHHHHHHMIRMIRKFKVKGLRSPSLLIDMILNDTEEGILVVETDGEEQIKDIEKLLKKYNLKYEVDGNVVKIYVGEIKADKTINVVGATCPGPIMMVSDMLSKMKNGEILEIICGKNSLTDLTEGLKGMGNEIIKVEDKGDGTYRILVKKGEKKEEKAAVTKIDELFIINTTGTGNAEKAYATFMMADVALKMNLKPTIFLMMDGASLALKGECDRVKHPAFPKLGDLVRDILSKGVKIYVCELSAEFRGINEKNLEEGFEIAGAPTFLNYLSKPNVRPVWL, MGSDKIHHHHHHMIRVLSVFGTRPEAIKMAPLVKKLEEEQNVESLVCVTAQHRQMLDQVLEVFDIKPDFDLNIMKERQNLSDITVNALSGLYDLIGELKPDIVLVQGDTTTTFAGALAAFYHRIPVGHVEAGLRTNDRYSPFPEEINRRLTGVLSTLHFAPTKRNRENLLKENVMGKIYVTGNTVIDALRYTVKENHVFEDPILRNMDFSDGRYILLTSHRRENIGKPLENICRAVRRIVEGFEDVKVIYPVHMNPAVREIVFPMLENVERVFLIDPVNVIDMHNLMARSYLIMTDSGGIQEEAPALGKPVIVLRKETERPEAIEAGVAVLGGVEEERIFELAKKLLVDREEYEKMAKAVNPFGDGRASERIVKAILHEFGLSDPPEEFC, MGSDKIHHHHHHMISERMERQLDFIVAIDALKDITRQSITTGSRRQENDAEHSWHLAVMAMILSEYAEDQTIDIAKVISMVLIHDLVEIYAGDTYCYDEKGYEDKAEREQEAADRLFNMLPEDQAQRMMSLWQEFEEMETKEAAFAATLDRFQPLLLNYNTEGHTWQRPGITSEKVLKRTEIAKEKVPQLYVYIERLIQRSIERGMLKP
